Test results reported in the nanobody polyreactivity screen of Harvey et al. (2022).

Experiment: yeast display, Sf9 membrane polyspecificity reagent, FACS + sequencing; frameworks hold sequencing errors
Summary of the method: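 After 36–48 hours of galactose induction, yeast (Saccharomyces cerevisiae BJ5465) displaying a synthetic nanobody library were stained at 4 °C for 1 hour with 10% biotinylated, detergent-solubilized Sf9 membrane reagent. Streptavidin microbeads enriched the stained cells before FACS sorting into low and high (top ~1%) gates on anti-HA and streptavidin fluorescence. Each clone's polyreactivity label reflects its gate of origin.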

| Sequence | polyreactivity (PSR sort gate) |
| --- | --- |
| QVQLVESGGGIVQAGGSLRLSCAASGRIFYDHAMGWYRQAPGKERELVAAITSVRSTNYADSVKGRFTISRDNAKNTVNLQMNSLKPEDTAVYYCARASAWYGTLVGKYTKYDYWGQATQVTVSS | low polyreactivity |
| QVQLVESGGGLVQAGGSLRLSCAASGSIFTANAMGWYRQAPGKERELVAAISRSGGRTYYADSLKGRFTISRDNEKNTVYLQWKSLKPEDTAVYYCNVGRFNTSGYDYWGLGTQVTVSS | high polyreactivity |
| QVQLVESGGGLVQAGGSLRLSCAASGRLFYSYAMGWYRQAPGKERELVAAIGRGGGTTYADSVKGRFTISRDNAKNTVYLQMNSLKPEDTAVYYCAADWHSTPRHTMDYWGQGTQVTVSS | low polyreactivity |
| QVQLVESGGGLVQAGGSLRLSCAASGRIFGHYAMGWYRQAPGKERELVAAIRYSAGRTYYAGSVKGRFTISRDNAKNTVYLQMNSLKPEDTAVYYCAKTSRYLTGGGDYWGQGTQVTVSS | high polyreactivity |
| QVQLVESGGGLVQAGGSLRLSCAASGSTFPYNTMGWYRQAPGKEREFVAAITGDGGTTYYADSVKGRFTISRDNAKNTVYLQMYSLKPEDTAVYYSAVPYPAEGYGGDYWGQGTQVTVSS | low polyreactivity |
| QVQLVESGRGLVQAGGSLRLSCAASGFIFRDYAMGLYRQAPGKVRELVAAISSRGGGTSYADSVKGRFTITRDNAKNTVYLQMNSLKPEDTAVYYCNKGYGRYVVTAYDYWGQGTQVTVSS | high polyreactivity |
| QVHLVESGGGVVQAGGSRRLSCAASGSIIHDNAMGWYRQAPGKERELVADITWSGGSTYYADSVKGRFTISRDNAKITVYLQMNSLKPEETAVYDCAAGSGHWYYYDFDYWGQGTLVTVSS | high polyreactivity |
| QVQLVESGGGLVQAGGSLRLSCAASGLIFTAYAMGWYRPAPGKERELVAAITGSGGRTYYADSVKGRFTISRDNALNSVYLQMNSLKAEDTAVYYCAADFPARGSSTYDYWGQGTQVTVSS | high polyreactivity |
| QVQLVESGGALVQAGGSLRLSCAASGNTFRGYTMGWYRQAPGKEREFVAAISWSGGRTNYADSVKGRFTISRDNAKNTVYLQMNSLTPEDTAVYYCGRDYRARRWGMDYWGQGTQVTVSS | high polyreactivity |
| QVQLVESGGGLVQAGGSLRLSCAASGRIFYPYAMGGYRQAAGKEREFVAAISSGVSTNYADSVTGRFTISRDNATTTVYLQMNSLKPEDTAVYYCARSYFRYASSYYQAVSHGYSGQGTQVTVSS | high polyreactivity |
| QVQLVESGGGLVQAGGSLRLSCAASGITFRGYAMGWYRQAPGKERELVAAINSGGSTNYADAVKGRFTISRDNAKNTVYLQMNSLKPDDPAVYYCAADDYPYGNYYWGQGTQVTVSS | high polyreactivity |
| QVQLVESGGGLVQAGGSLRLSCAASGITFYYYAMGWYRQAPGKERELVAAISDNGSRTYYADSVKGRFTISRDNAKNTVYLQMNSLKPEDTAVYYCAAEGSYGYDYWGQGTQVTVSS | high polyreactivity |
| QVQLVESGGGLVQAGGSLRLSCAASGSIFRGYAMGWYRQAPEKERELVAAMSRRGGSTYYADSVKGRFTISRDNAKNTVYLQMNSLKPEDTAVYYCAADWLSWFHGYGMYYWGQGTQVTVSS | low polyreactivity |
| QVQLVESGGGLVQAGGSLRLSCAASGSIITPYTMGWDRQAPGKERELVAAISWSGATTHYADSVKGRFTISRDNAKNTVYLQMNSLKPEDTAVYYCAARWGLRSSRYYYWGQGTQVTVSS | high polyreactivity |
| QVQLVETGGGLVQAGGSLRLSSAASGFIFGTYTMGWYRQAPGKERELVAAISTSSGSTYYADSVKGRFTISRDNAKNTVYLQMNSLKPEDTAVYYCAAPTRSYGTPPYDYWGQGTQVTVSS | low polyreactivity |
| QVQLVESGGGLVQPGGSLRLSCAASGSIFLRYAMGWYRQAPGKERELVAGITSGGSTNYADSVKGRFTISRDNAKNTVYLQMNSLKPEDTAVYYCNKDLPDWGQGTQVTVSS | low polyreactivity |
| QVQLVESGGGLVQAGGSLRLSCAASGFIFGYNAMGWYRQAPGKERELVAAISTRGGSTYYADSVKGRFTISRDNAKNTVYLQMNSLKPEDTAVYYCNKVTRVPFDSWGQCTQVTVSS | high polyreactivity |
| QVQLLESGGGLFQAGGSLRLICAASGRIFDENAMGWYRQAPRKDREMVAAISWSGGITYYADSVKGRFTISRDYAKNNVYLQMNSLKPEDTAVYYCAADIFQGYTFYQGYPGGAGYWGQGTQVTVSS | low polyreactivity |
| QDQLVESGGGLVQAGGSLRLSCAASGSNLYRNAMGWSRQAPGKERELVAAITSRGGSTYADSVTGRFTISRDNAKNTVYLQMNSLKPEDTAVYYCAKGYLYRRPTVTHGYWGQGTQVTVSS | low polyreactivity |
| QVQLVESGGGIVQAGGSLRLSCAASGSTFYDYAMGWYRQAPGKETELVAAITRGGSTYYADSVKGRFTISRDNAKNTVYLQMNILKPEDTAVFYCAKYLTCAAYLVPEYDYWGQGTQVSVSS | low polyreactivity |
| QVHLVESGGGLVQAGGSLRLSCAASGSTFLYYAMGWYRQAPGKERELVAAISSSGGRTYYADSVKGRFTISRDNAKNTVYLQMNSLKPEDTAVYYCAADGRRTSKAGYYYWGQGTQVTVSS | high polyreactivity |
| QVQLVESGGGLVQAGGSRRLSCAASGIIFAQYAMGWYRQAPGKERELVDSISGGGSTTNYADSVKGRFTISRDNAKNTVYLQMNSLKPEDTAVYYCAARTRRRGGIYDYWGQGTQVTVSS | high polyreactivity |

| Sequence | polyreactivity (PSR sort gate) |
| --- | --- |
| QVQLVESGVGLVQAGGSLRLSCAASGFSFAVYGMGSYIQAPGKQRELVAAISTGDSTKYADSVKARFTISRDNAKNTVYLQKNSLKPEDTEVYYCAARIPWSPWLGYWGQGTQVTVST | high polyreactivity |
| QVQLVESGGGLVQAGGSLRLSCAASGFIFSSYAKGWYRQAPGKERELVAVITRSGRRTYYADSVKGRFTISRDNAKNTFYLQMNSLKPEDTAVYYCNATLPNEVAPNDYWGQGTQVTVSS | high polyreactivity |
| KVQLVESGGGLVQAGGSLRLSCAASGRIFYSNVMGWYRQATGKERELVAAISGRTGGTYYADSVKGRFTISRDNAKNTVYLQMNSLKPEDTAVYYCAARFIYYYGSGPDDYWGQGTQVTVSS | low polyreactivity |
| QVQLVESGGGLVQAGGSLRLSCAASGFTFVYNAMGWYRQAPGKERELVAAISSRGGSTFYADSVKGRFTISRDNAKNTVYLQMNSLKPEDTAVYYCNAVPGWTYDYWGQGTQVTVSS | high polyreactivity |
| QVQLVESGGGLVQAGGSLPVSCAASGFTIVYYAKGWYRQAPGKERELVADISSEGSTYADSVKGRFTISRDNAKNTVSLQMNSLKPEDTAVYYCPAQPIYSYWRSSLYYYWGQGTQVTVSS | high polyreactivity |
| QVQLVESGGGLVQAGGSLLLSCDASGNTFIENDMGWYIQAHGKERELVDPIDTGGYTYYADSVKGRFTISRDNAKNTVYLQMNSLKPDDTAVYYCTAVGLYLYRYKFGYLGKIGPGYDYWGQGTQVTVSS | low polyreactivity |
| QVHHVESGGVLVQAGRILRVSCAASGSTFPRNAMGWYRHAPGKERELDAAITSRGGRTYYADSVKGRFTISRDNAKNTVYLQMISLKPEDTAVYYCARVGGIGSGRTGYGYWGQGSQVTVSS | high polyreactivity |
| QVQLVESGGGLVQAGGSLRLSCAASGSIFGSNAMGWYRQAPGKERELVAVITNGGRTYYADSVKGRFTISRDNAKNSVYLQMNSLNPEDTAVYYCAASRVYGWYGSYSTYGSWGQGTQVTVSS | high polyreactivity |
| QVQLVESGGGLVQAGGSLRLSCAASGFTFYGYAKGWYRQAPGKERELVAAISKRGGSTYYADSVKGRFTISRDNAKNPVYLQMNSLKPEDTAVYYCNADKHYQYRYRQYGYWGQGTQVTVSS | high polyreactivity |
| QVQLVESGGGIVQAGGSLRLSCAASGSTFRLYAMGWYRQAPGKERELVAAITWSVGSTYYADSVKGRFTISRDNAKNTVYLQMNSLKPEDTAVYYCAADRIGYYLRVSYRGKYDHWGQGTQVTVSS | low polyreactivity |
| QVQLVESGGGLVQAGCSLRLSCAASGRIFSRNAMGWYRQAPGKERELVAVITKRGGSTYYADSVKGRFTISRDKAKNTVYLQMNSLKPEDTAVYYCNAVPRRGIAFNHWGQGTHVTVSS | high polyreactivity |
| QVQLVESGGGLVQAGGSLRLSCAASGITFSSNAMGWSRQAPGKERELVAAISSSGGRTYYADSVKVRFTISRDYAKNTVYLQMNSLKPEDTAVYYCAKTSRYYYYSRLYYWGQGTKVTVSS | high polyreactivity |
| QVHLVESGGGLLQAGGSLRLSCAASGSTFYSYAMGWYRQAPGKERELVAAITYSDGDTYYADSVKGRFTISRDNAKNTVYLQMNSLKPEDTAVYYCAAEYQGQPGTGNLEYWGQGTQVTVSS | low polyreactivity |
| QVQLVESGGGLVQAGGSLRLSCAASGSIFGQYAMGWYRQAPGKERELVAAITDTGDSTYYADSVMGRFTISRDNAKNTVYLQMNSLKPEDTAVYYCAADVYYAFGSMYYWGQGTQVTVSS | low polyreactivity |
| QVQLVESGGGLVQAGGSLRLSCAASGSTFRWYAMGWYRQAPGKERELVAAISARGTSTYYADSVKGRFTISRDNAKNTVYLQMNSLKPEDTAVYYCAATRTYQLYRWAPRYYYWGQGTQVTVSS | high polyreactivity |
| QDQLVESGGGLVQGGGSLRLSCAGSGFTFSRYAMGSYRQAPGKERELVAAITRRRGRTYYADSVKGRFTISLDNAKNTVYFKMNSLYPEDTAVYYCNTDAYRLGYDYWGQGTQVTVSS | high polyreactivity |
| QVQLVESGGGLVQAGGSLRLSCAASGSTFSGNAMGWYRQAPGKEWELGATITITGGSTYYADSVKGRFTISRDNAKNTVYLQMNSLKPEDTAVYYCAKDYYAYSDYDYWGQGTQVTVSS | low polyreactivity |
| QVQLVESGGGLVQGGGSLRFSCAASGSTFPSYARGWYRQAPGKERELVAAINSGGGTNYADSVKGRFTISRDNAKNTVYLHMNSLKPEDTAVYYCAKSRYDYTKTEGGYWGQGTQVTVSS | low polyreactivity |
| QVQLVESGGGLVQAGGSLRLSCAASGSTIWPYTMGWYRQAPGKERELVAAITLRGGTTYYADSVKGRFTISRDNAKNTVYLQMNSLKPEDTVVYYCNATSGNPASTAWMNYWGQGTQVTVSS | low polyreactivity |
| QVQLVESGGVLVQEGGSLRLSCADSGRIFYSNAMGWYRQAPGKERELVAAISYSGGRTYYADSVKGRFTISRDNAKNTVYLQMNSLIPEDTAVYYCAARYAWGYVDPGDYWGQGTQVTVSS | high polyreactivity |
| QVQLVDSGGGLVQAGGSLRLSCASSGFIFQYNTMGWSRQAPGKERELVAVITRTGSTNYADSVKGRFTISRDNANNTVYLQMNSLKPEDTAVYYCATSVYSRPRKPRYYYWGQGTQLTVSS | high polyreactivity |
